These results are taken from patent publication US20220356229A1.

This experiment deals with SARS-CoV-2 full length Spike protein, wild type, expressed on the surface of transiently transfected CHO cells (SARS-CoV-2), P0DTC2. The note with it: remark: other sources report otherwise.

B1: antibody 262 (antibody, V domains shown)
VH: QVQLVESGGGVVQPGRSLRLSCAASGFTFSSYAMHWVRQAPGKGLEWVAVISYDGSNKYYADSVKGRFTISRDNSKNTLYLQMNSLRAEDTAVYYCARDGGELLWFGELDYYGMDVWGQGTTVTVSS
VL: SYELTQPSSVSVSPGQTARITCSGDVLAKKYARWFQQKPGQAPVLVIYKDSERPSGIPERFSGSSSGTTVTLTISGAQVEDEADYYCYSAADNNRGVFGGGTKLTVL
For the molecule B1, the median fluorescence intensity, fold over isotype control (fold over isotype) is 0.89.
